From FireProtDB (doi:10.1021/bi972642d) come the findings set out here.

B1: Protein S100-G, P02633 (parent)
chain: MSAKKSPEELKGIFEKYAAKEGDPNQLSKEELKLLLQTEFPSLLKGPSTLDELFEELDKNGDGEVSFEEFQVLVKKISQ

The variants in the data set derive from B1. To be noted: Bos taurus; pH 7; 25 °C; Urea; CD; Potassium phosphate 10 mM; structure 1IGV; whole UniProt chain shown.

In the case of V65G, the “ddG of mutation (higher = less stable)” value amounted to 4.35 kcal/mol, the denaturant m value is 0.86 kcal/mol/M, the “denaturant midpoint (higher = more stable)” value (“denaturant midpoint” below) came to 2.6 M and the unfolding free energy came to 2.2 kcal/mol.

Take V65A: the “ddG of mutation (higher = less stable)” value worked out at 3.78 kcal/mol, the denaturant m value was determined as 0.81 kcal/mol/M, the “denaturant midpoint” value worked out at 3.4 M and the unfolding free energy turned out to be 2.77 kcal/mol.

Regarding F14A, the “ddG of mutation (higher = less stable)” value was 4.83 kcal/mol, the denaturant m value came out at 0.88 kcal/mol/M, the “denaturant midpoint” value stood at 2 M and the unfolding free energy amounted to 1.72 kcal/mol.

In the case of L32A, the “ddG of mutation (higher = less stable)” value amounted to 2.7 kcal/mol, the denaturant m value turned out to be 1.03 kcal/mol/M, the “denaturant midpoint” value was determined as 3.8 M and the unfolding free energy came to 3.85 kcal/mol.

As to V74L, the “ddG of mutation (higher = less stable)” value is 1.2 kcal/mol, the denaturant m value turned out to be 0.81 kcal/mol/M, the “denaturant midpoint” value worked out at 6.6 M and the unfolding free energy is 5.35 kcal/mol.

As for L27A, the “ddG of mutation (higher = less stable)” value was 3.73 kcal/mol, the denaturant m value came out at 1.03 kcal/mol/M, the “denaturant midpoint” value came out at 2.7 M and the unfolding free energy amounted to 2.82 kcal/mol.

With L27G, the “ddG of mutation (higher = less stable)” value was found to be 4.28 kcal/mol, the denaturant m value stood at 1.22 kcal/mol/M, the “denaturant midpoint” value is 1.8 M and the unfolding free energy amounted to 2.27 kcal/mol.

For I77V, the “ddG of mutation (higher = less stable)” value turned out to be 1.53 kcal/mol, the denaturant m value was determined as 1.15 kcal/mol/M, the “denaturant midpoint” value worked out at 4.4 M and the unfolding free energy was found to be 5.02 kcal/mol.

L10V: the “ddG of mutation (higher = less stable)” value amounted to 2.2 kcal/mol, the denaturant m value was determined as 1 kcal/mol/M, the “denaturant midpoint” value was 4.3 M and the unfolding free energy was 4.35 kcal/mol.

For the variant F70A, the “ddG of mutation (higher = less stable)” value worked out at 4.97 kcal/mol, the denaturant m value came to 0.79 kcal/mol/M, the “denaturant midpoint” value was found to be 2 M and the unfolding free energy turned out to be 1.58 kcal/mol.

In the case of F70W, the “ddG of mutation (higher = less stable)” value came out at 2.34 kcal/mol, the denaturant m value was 0.69 kcal/mol/M, the “denaturant midpoint” value was 6.1 M and the unfolding free energy was 4.21 kcal/mol.
